Measured values reported in patent publication US20220348651A1 (Novartis, published 2022).
Where “and” joins values, the source holds several entries; their conditions need not be identical. Identical values can stand only once.

Columns and labels:
[1] = target: human FcγRIIIa, V158 (high affinity variant) on engineered Jurkat cells (human, UniProt P08637 17-254); test: cell-based or functional assay
[2] = target: recombinant human ENTPD2 extracellular domain (residues 29-462) with C-terminal Avi-His6 tag (human, UniProt Q9Y5L3 29-462, biotinylated on the AviTag in the epitope binning assay); test: cell-based or functional assay
Sequence of recombinant human ENTPD2 extracellular domain (residues 29-462) with C-terminal Avi-His6 tag (Q9Y5L3 29-462): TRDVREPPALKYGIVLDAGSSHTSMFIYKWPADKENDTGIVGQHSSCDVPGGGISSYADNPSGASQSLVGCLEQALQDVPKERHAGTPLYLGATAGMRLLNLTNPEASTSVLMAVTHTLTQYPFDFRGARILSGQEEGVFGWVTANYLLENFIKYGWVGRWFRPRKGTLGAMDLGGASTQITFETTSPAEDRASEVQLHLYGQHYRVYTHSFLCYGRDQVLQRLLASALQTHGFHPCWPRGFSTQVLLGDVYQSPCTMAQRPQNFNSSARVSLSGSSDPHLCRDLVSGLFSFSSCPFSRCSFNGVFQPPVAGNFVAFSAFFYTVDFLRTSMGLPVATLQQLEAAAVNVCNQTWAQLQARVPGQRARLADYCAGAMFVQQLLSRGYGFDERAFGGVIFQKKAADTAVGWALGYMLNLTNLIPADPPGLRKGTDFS

Sequence of human FcγRIIIa, V158 (high affinity variant) on engineered Jurkat cells (P08637 other isoform, or with tags, fused parts or gaps mutant limits assumed): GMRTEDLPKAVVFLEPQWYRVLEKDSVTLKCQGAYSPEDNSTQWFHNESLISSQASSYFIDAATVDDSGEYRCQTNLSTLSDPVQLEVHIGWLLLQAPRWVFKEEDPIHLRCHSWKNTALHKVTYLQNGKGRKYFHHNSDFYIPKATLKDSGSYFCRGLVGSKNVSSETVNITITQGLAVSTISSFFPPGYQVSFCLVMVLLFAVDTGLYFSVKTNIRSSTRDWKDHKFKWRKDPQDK

B1: ANTI-HUMAN ENTPD2 MAB1 (antibody, human IgG1, kappa)
heavy: not shown
light: DIQLTQSPSSLSASVGDRVTITCSASSSVSYIHWFQQKPGKAPKLLIYSTSNLASGVPSRFSGSGSGTFFTLTISSLQPEDFATYFCHQWSSYPWTFGQGTKVEIKRTVAAPSVFIFPPSDEQLKSGTASVVCLLNNFYPREAKVQWKVDNALQSGNSQESVTEQDSKDSTYSLSSTLTLSKADYEKHKVYACEVTHQGLSSPVTKSFNRGEC
notes: humanized from mAb17; human IgG1, kappa; also called anti-ENTPD2 mAb1
- EC50, Jurkat FcγRIIIa V158 NFAT-luciferase reporter with RKO cells [1]: 17.3 nM and 2.55 µg/mL
- IC50, ENTPD2 Biochemical Assay at 1 uM ATP [2]: 0.52 nM
